Data set [1] deals with the molecule itself. As to the kind of experiment: crystal structure; CYRI-BΔN alone, selenomethionine SAD, 2.37Å, two molecules in the asymmetric unit; crystals at 291K, 0.1M carboxylic acid, 8% MPD_P1K_P33, 0.1M MOPS/HEPES-Na pH 8.0.
For a further data set, the target named is Rac1Q61L (human, UniProt P63000 1-192, Q61L). As to the kind of experiment: SPR; Biacore T200; anti-MBP antibody coupled on a CM5 chip; MBP-CYRI-BΔN captured (~800 RU) on flow-cell 2, MBP (400 RU) on flow-cell 1; Rac1Q61L 0.625μM-80μM as analyte. The note with it: both partners purified. Background: Surface plasmon resonance follows binding to a sensor surface in real time, without labels.

B1: mouse CYRI-B residues 26-324 (CYRI-BΔN) (domain or fragment, UniProt Q921M7 26-324, looked up)
chain: AQPTESEKEIYNQVNVVLKDAEGILEDLQSYRGAGHEIREAIQHPADEKLQEKAWGAVVPLVGKLKKFYEFSQRLEAALRGLLGALTSTPYSPTQHLEREQALAKQFAEILHFTLRFDELKMTNPAIQNDFSYYRRTLSRMRINNVPAEGENEVNNELANRMSLFYAEATPMLKTLSDATTKFVSENKNLPIENTTDCLSTMASVCRVMLETPEYRSRFTNEETVSFCLRVMVGVIILYDHVHPVGAFAKTSKIDMKGCIKVLKDQPPNSVEGLLNALRYTTKHLNDETTSKQIRSMLQ
modifications: selenomethionine labelled
notes: CYRI-B (Fam49B), mouse, residues 26-324 (entire DUF1394 domain; N-terminal residues 1-25 truncated); Two copies in the asymmetric unit of PDB 7AJL; also called Fam49B; source: E. coli B834 (DE3), selenomethionine labelled, purified (HisTrap, TEV, HisTrap flow-through, Superdex S200); not shown: His10, N-terminal, cleaved; MBP, N-terminal, cleaved
In the case of B1, the binding result in data set [1] was “binds”.

B2: MBP-CYRI-BΔN (domain or fragment)
chain: B1 chain
notes: The purification of the uncleaved MBP fusion used for SPR is not described; source: E. coli BL21 pLysS; not shown: His10, N-terminal, kept; MBP, N-terminal, kept
B2 yielded a Kd with Rac1Q61L of 25 µM.

One may read the Kd as the constant that tells how readily two partners part at equilibrium.
